Experiments:
ヒトFRβ(FRβ発現B300−19細胞) [1] = target: T1, ヒトFRβ(FRβ発現B300−19細胞) (human, UniProt P14207 17-230); experiment: Flow cytometry on B300-19 cells expressing FRβ, in the presence of F(ab')2 No.5, APC-streptavidin detection
T1 construct: whole, on cells; also called 葉酸リセプターβ

ヒトFRβ(FRβ発現B300−19細胞) [2] = target: T1, ヒトFRβ(FRβ発現B300−19細胞); experiment: Flow cytometry on B300-19 cells expressing FRβ, antibody at 1 μg/ml, APC anti-rat detection
ヒトFRα(FRα発現KB細胞) = target: T2, ヒトFRα(FRα発現KB細胞) (human, UniProt P15328 25-234); experiment: Hybridoma screening on cells expressing FRβ and on KB cells expressing FRα
T2 construct: whole, on cells
T2 sequence (P15328 25-234): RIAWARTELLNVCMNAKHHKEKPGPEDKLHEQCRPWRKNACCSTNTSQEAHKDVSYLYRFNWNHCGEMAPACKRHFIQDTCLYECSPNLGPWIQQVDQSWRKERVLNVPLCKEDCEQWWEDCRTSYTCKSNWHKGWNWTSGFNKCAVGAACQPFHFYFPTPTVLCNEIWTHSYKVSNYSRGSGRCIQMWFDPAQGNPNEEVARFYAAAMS

T1 sequence (P14207 17-230): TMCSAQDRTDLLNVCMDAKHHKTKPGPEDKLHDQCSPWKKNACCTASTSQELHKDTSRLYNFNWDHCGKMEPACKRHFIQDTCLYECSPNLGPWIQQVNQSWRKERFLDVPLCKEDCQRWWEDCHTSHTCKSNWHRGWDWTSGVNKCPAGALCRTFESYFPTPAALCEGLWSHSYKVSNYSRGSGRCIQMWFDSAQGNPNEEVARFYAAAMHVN

Binder | binding result (ヒトFRβ(FRβ発現B300−19細胞) [1]) | binding result (ヒトFRβ(FRβ発現B300−19細胞) [2]) | binding result (ヒトFRα(FRα発現KB細胞))
ビオチン化No.2抗体 (antibody, V domains shown, biotinylated with Sulfo-NHS-LC-Biotin; sites not stated, also called 検出抗体; ビオチン化抗FRβ抗体) VH: QVQLQQSGAELAKPGSSVKISCKASGYTFTTYYINWIKQTTGQGLDYIGYINTRSGGTNYNEKFKGKATLTVDKSSSTAFMQLSSLTPDDSAVYYCAREGIIRGAEVMDAWGQGASVTVSS VL: DIQMTQTPSSMPASLGERVTISCRASQGISNYLNRYQQKPDGTIKLLIYYTSNLQSGVPSRFSGSGSGTDYSLTISSLEPEDFAMYYCQQYDSSPPTFGGGTKLELK | binds | – | –
抗ヒトFRβラットモノクローナル抗体(クローン名:No.2) (antibody, V domains shown, Rat monoclonal antibody purified from hybridoma supernatant; the constant regions are not; also called 抗体No.2) VH: QVQLQQSGAELAKPGSSVKISCKASGYTFTTYYINWIKQTTGQGLDYIGYINTRSGGTNYNEKFKGKATLTVDKSSSTAFMQLSSLTPDDSAVYYCAREGIIRGAEVMDAWGQGASVTVSS VL: DIQMTQTPSSMPASLGERVTISCRASQGISNYLNRYQQKPDGTIKLLIYYTSNLQSGVPSRFSGSGSGTDYSLTISSLEPEDFAMYYCQQYDSSPPTFGGGTKLELK | – | binds | –
抗ヒトFRラットモノクローナル抗体(クローン名:No.5) (antibody, V domains shown, Rat monoclonal antibody purified from hybridoma supernatant; the constant regions are not; also called 抗体No.5) VH: QVQLKESGPGLVQPSQTLSLTCTVSGFSLTSNSVSWVRQPPGKGLEWMGAIWSGGSTDYNSALKSRLSISKDTSKSQVFLKMNSLQTEDTAIYFCTRYYGYTYFAYWGQGVMVTVSS VL: DIQMTQSPASLSASLEEIVTITCQASQDIGNWLAWYQQKPGKSPQLLIYDAIRLADGVPSRFSGSRSGTQYSLKISRLQVEDIGDYYCQQGQSNPRTFGGGTKLELK | – | binds | binds

From patent publication JP2016161390A (dated 2016)
